Reference: ChEMBL document CHEMBL1147236, “Semiplenamides A-G, fatty acid amides from a Papua New Guinea collection of the marine cyanobacterium Lyngbya semiplena” (J Nat Prod, 2003)

Substrate: CCCCC/C=C\C/C=C\C/C=C\C/C=C\CCCC(=O)NCCO
Conditions: Mus musculus; N18TG2
Description: Activity at FAAH in mouse N18TG2 cell membranes

B1: Fatty-acid amide hydrolase 1 (Mus musculus), O08914 (protein)
chain: MVLSEVWTALSGLSGVCLACSLLSAAVVLRWTRSQTARGAVTRARQKQRAGLETMDKAVQRFRLQNPDLDSEALLALPLLQLVQKLQSGELSPEAVLFTYLGKAWEVNKGTNCVTSYLTDCETQLSQAPRQGLLYGVPVSLKECFSYKGHASTLGLSLNEGVTSESDCVVVQVLKLQGAVPFVHTNVPQSMLSYDCSNPLFGQTMNPWKPSKSPGGSSGGEGALIGSGGSPLGLGTDIGGSIRFPSAFCGICGLKPTGNRLSKSGLKSCVYGQTAVQLSVGPMARDVDSLALCMKALLCEDLFRLDSTIPPLPFREEIYRSSRPLRVGYYETDNYTMPTPAMRRAVMETKQSLEAAGHTLVPFLPNNIPYALEVLSAGGLFSDGGCSFLQNFKGDFVDPCLGDLVLVLKLPRWFKKLLSFLLKPLFPRLAAFLNSMCPRSAEKLWELQHEIEMYRQSVIAQWKAMNLDVVLTPMLGPALDLNTPGRATGAISYTVLYNCLDFPAGVVPVTTVTAEDDAQMEHYKGYFGDMWDNILKKGMKKGIGLPVAVQCVALPWQEELCLRFMREVERLMTPEKRPS
- Km: 15 µM
